# Experiments:
# Assay in all cases: pull-down binding Z-score (relative to library population); higher = stronger binding
# [1] = test system: TO-N3-2 (biotin conjugate); settings: RNA library: Library-2
# Summary of the method: (§1)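 A heat-folded, dye-end-labelled (Cy5 or Cy3) RNA library (1 μg, phosphate/NaCl/KCl buffer) was exposed for 60 min at 25 °C to streptavidin beads holding 100 pmol of biotin-conjugated small molecule. RNA retained on the beads was eluted in hot SDS and hybridised to a DNA barcode microarray for 20 h at 55.5 °C. Binding scores were Z-scores against the library mean and standard deviation, calculated after subtracting beads alone and taking trimmed means of replicate probes.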
# [2] = test system: TO-3-N3 (biotin conjugate); settings: RNA library: Library-2
# Summary of the method: as §1
# [3] = test system: G-clamp-N3 (biotin conjugate); settings: RNA library: Library-1 (pre-miRNA loops + repeats)
# Summary of the method: as §1
# [4] = test system: TO-3-N3-2 (biotin conjugate); settings: RNA library: Library-2
# Summary of the method: as §1
# TO-N3 (biotin conjugate) = settings: RNA library: Library-2
# Summary of the method: as §1
Sequence,pull-down binding Z-score [1],pull-down binding Z-score [2],pull-down binding Z-score [3],pull-down binding Z-score [4],pull-down binding Z-score (TO-N3 (biotin conjugate))
GGAUAGAAACUAUUAUUCUAUUC [hsa-mir-664a],-1.38,-0.357,-0.818,-0.303,-0.784
AGCUUUAUGUAUUCUGAAGUUAUUGAAAAUAAGAGCU [hsa-mir-3140],-0.911,-0.877,-0.628,-0.254,-1.1
ACCCUGCAGCCCCAGCUGGAGGAUGAGGAGAUGCUGGGCUUGGGU [hsa-mir-4313],2.93,0.794,1.16,1.45,1.73
CUCGUCUCUACAAAAAAUUGAGACAGG [hsa-mir-4512],-0.632,0.00896,-0.338,-0.15,-0.152
GAGUUUGGAAUUAAAAUCAAAACC [hsa-mir-181a-1],0.419,-0.619,-0.118,-0.129,-0.398
GAGUCAGAAAAACUAC [hsa-mir-601],0.271,0.125,-1.28,-0.0131,0.484
GUCUUGAUCCCCCACCCCAAGAC [hsa-mir-642b],0.091,-0.257,-1.37,-0.299,-0.41
UUCAGAUUUUGGAACAUUUCGGAUUUUGGA [hsa-mir-1290],-1.15,-0.172,2.01,-0.35,-0.297
GCCUGCGGGCAGGAAGCGGA [hsa-mir-3928],2.23,1.57,-0.0318,1.34,1.87
GUCUGUUUUCUUCAUGGUUUUCUGAC [hsa-mir-6759],-0.557,-0.779,0.125,-0.481,-0.999
CUUGUGGUGAAGUGGACCGCACAAG [hsa-mir-99a],1,-0.203,1.24,0.00618,-0.0222
GUGGCCUUGGACAAGCCUCUUGGUUAC [hsa-mir-4672],0.885,-0.457,-0.419,-0.502,-0.141
UGCUUCAGUUUCACUCCAAGCA [hsa-mir-4771-2_4771-1],-0.141,-0.0351,-0.932,-0.126,-0.204
GGAGACACUUUCACUAUAUAUAGUGGCUCC [hsa-mir-3156-2],-1.03,-0.948,-0.175,-0.571,-1.34
CCGGCCCGUUAGUUGCCCGGGCCCG [hsa-mir-3181],0.914,-0.57,-0.29,-0.397,-0.422
GGCAUCUAGGCUGUGCACAGUGACGCC [hsa-mir-4749],0.336,-0.604,0.317,-0.421,-0.376

Sequence,pull-down binding Z-score [1],pull-down binding Z-score [2],pull-down binding Z-score [3],pull-down binding Z-score [4],pull-down binding Z-score (TO-N3 (biotin conjugate))
AUCUCCUUUAGGAAAACCUUCUGUGGGGAGU [hsa-mir-1296],-0.641,-0.0517,-0.272,-0.226,-0.275
CAGUGACAUGCGUUUAAC [hsa-mir-4485],0.0479,0.345,-0.778,0.112,0.394
CCUCCCCCAGUGCCAGG [hsa-mir-3196],0.352,-0.253,-0.591,-0.331,-0.106
GCCAGCAACCUGAUUACCCCUCUUUGGC [hsa-mir-6851],0.533,-0.53,-0.819,-0.495,-0.552
UGUGUGUACUCACAGCCCCUCACACA [hsa-mir-942],-0.11,-0.301,-0.624,-0.262,-0.432
GGCGGUGAAGCUCC [hsa-mir-4532],0.727,-0.22,0.399,-0.285,-0.104
CCCCGCGCGCGGACAGACACACGGACAAGUCCCGCCAGGGG [hsa-mir-4492],4.65,-0.131,-0.362,-0.38,1.59
UUUGCCAUUAAAAGUAACGACAAA [hsa-mir-548a-1],-0.81,-0.873,-0.965,-0.389,-1.11
CUACAUCGUGGAAGCCAGCACCAUGCAG [hsa-mir-455],0.773,0.731,0.169,-0.206,0.826
UAUAGUGUGUUUGAUUUGCACUGUA [hsa-mir-4703],-1.07,-0.156,0.116,-0.198,-0.424
GGGAGGUAAGAAGUCUCUGACUCCU [hsa-mir-5193],-0.358,-0.307,0.481,-0.261,-0.44
UCCCAGCCACUCUGGAGG [hsa-mir-4419b],0.631,0.274,0.653,-0.194,0.44
UGGAGGUGAUGGGGGCAGGGGAUGGGUCUCACCCUCCC [hsa-mir-5088],2.59,3.33,0.537,2.93,3.11
GAGACUUUGUGAUUUGUCUCCAAAGCCUC [hsa-mir-6862-2_6862-1],-0.157,0.202,-1.06,-0.468,0.0513
GGUCUGAGCCCAUGUGUGGACCUAGGUCUGCUGUUAAACUGACU [hsa-mir-6831],0.647,0.286,-0.752,0.106,0.492

# Source: the supplement of paper PMC11865577
